For orientation: Kd means a measure of binding affinity in units of concentration. Low readings indicate higher affinity, high ones lower affinity.

Assay [1] deals with human epidermal growth factor receptor (EGFR) on the surface of A431 cells (human, UniProt P00533 25-1210). Nature of the assay: cell-based or functional assay.
In assay [2] the target is T1, full length EGFR protein from A431 cell lysate (affinity purified, or native in the lysate) (human, UniProt P00533 25-1210).
T1 construct: mature; 'mature' is chosen as the nearest form; also called intact EGFR protein; native EGFR
Nature of the assay: non-competitive ELISA on immobilized EGFR at 2 and 5 µg/ml coating. Here is the method: The hyperbolic curves were plotted by Graphpad Prism (FIG. 7). […] The affinity was calculated as an association constant (Kaff) as follows: […]
The affinity of the Fab was calculated by non-competitive ELISA as described elsewhere (Raghava G P, et al. J Immunoassay 15:115-28 (1994)). The EGFR proteins were immobilized to an ELISA plate at two different concentrations: 2 μg/ml and 5 μg/ml. After the plate was blocked by 5% milk-PBS, the serially diluted Fab was added to each well. The concentration of Fab and the absorbance optical at 450 nm were plotted in two hyperbolic curves and each Kd was calculated by Graphpad Prism Demo Version.

B1: Fab-paclitaxel conjugate (anti-EGFR Fab conjugated to paclitaxel) (Fab, V domains shown)
VH: EVQLVESGGGLVQPGRSLRLSCAASGFTFDDYAMHWVRQAPGKGLEWVAVIWYDGSNKYYADSVKGRFTISRDNSKNTLYLQMNSLRAEDTAVYYCARTLYSNIDYWGQGTLVTVSS
VL: ALTQPPSVSVAPGKTARITCGGNNIGSKSVHWYQQKPGQAPVLVIYYDSDRPSGIPERFSGSNSGNTATLTISRVEAGDEADYYCQVWDSSSDHPVFGGGTKLTVL
modifications: paclitaxel conjugated to the Fab; chain, site and linker not stated
B1: the “IC50 of A431 cell proliferation” value in assay [1] was found to be 0.02 nM.

B2: anti-EGFR Fab fragment (produced by E. coli deposited as ATCC PTA-7830) (Fab, V domains shown)
VH: EVQLVESGGGLVQPGRSLRLSCAASGFTFDDYAMHWVRQAPGKGLEWVAVIWYDGSNKYYADSVKGRFTISRDNSKNTLYLQMNSLRAEDTAVYYCARTLYSNIDYWGQGTLVTVSS
VL: ALTQPPSVSVAPGKTARITCGGNNIGSKSVHWYQQKPGQAPVLVIYYDSDRPSGIPERFSGSNSGNTATLTISRVEAGDEADYYCQVWDSSSDHPVFGGGTKLTVL
notes: Human Fab from a naive phage display library (phagemid pComb3X), expressed in E. coli Top 10 F' and purified from the periplasm; also called the Fab of the present invention
For the molecule B2, in assay [2], the Ka is 3.25e+07 M⁻¹ and the affinity, expressed as Kd, was 30.7 nM.

These data come from US20080131373A1 (VAN ANDEL RESEARCH INSTITUTE, published 2008).
